Results reported in US20180031566A1 (VENTANA MEDICAL SYSTEMS, published 2018).

Assays:
[1] = target: T1, recombinant protein for uPAR-like domain 2 of C4.4a (amino acids 139-224) (human, UniProt O95274 139-224); assay: ELISA with recombinant domain proteins
T1 construct: Recombinant domain used in ELISA
T1 sequence: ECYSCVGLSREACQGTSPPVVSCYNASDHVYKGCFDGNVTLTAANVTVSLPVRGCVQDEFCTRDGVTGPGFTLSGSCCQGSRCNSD

[2] = target: T2, recombinant protein for uPAR-Like domain 1 of C4.4a (amino acids 31-116) (human, UniProt O95274 31-116); assay: ELISA with recombinant domain proteins
T2 construct: Recombinant domain used in ELISA
T2 sequence: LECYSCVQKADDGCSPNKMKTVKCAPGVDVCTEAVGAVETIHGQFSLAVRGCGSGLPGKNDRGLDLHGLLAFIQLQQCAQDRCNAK

B1: anti-C4.4a antibody clone S42H9L5 (antibody, V domains shown)
VH: QSLEESGGRLVKPDETLTLTCTVSGFSLNTVAISWVRQAPGKGLEWIGFIHPTVNTYYARWAKGRFTISRASSTTVDLKVTSLTFEDAATYFCVRGNAHYDIWGPGTLVTVSL
VL: AFELTQTPSLVSAAVGGTVTISCQSSQSVYSDNYLAWYQQKPGQRPKLLIYKASDLASGVPSRFKGSGSGTEFTLTISDLECADAATYYCQSYYGVSSDSNAFGGGTEVVVK
notes: Rabbit monoclonal antibody; also called SP246 (a S42H9L5 clone)
binding result [1]: binds

B2: anti-C4.4a antibody clone S20H1L1 (antibody, V domains shown)
VH: QEQLEESGGGLVKPGGTLTLTCTASGFSLISTYYICWVRQAPGKGLEWIGCIPLSHSVSWYANWVNGRFSISKTSSTTVTLKMASLTDADTATYFCGRGSSGWGVDSKLWGPGTLVTVSS
VL: AVLTQTPSPVSASVGGTVTINCQSSPSVASGYLSWFQQKPGQPPKLLIYRASTLVSGVPSRFKGSGSGTHFTLTISDVQCDDAATYYCAGAYSSRSDTTFGGGTEVVVK
notes: Rabbit monoclonal antibody; also called SP245 (a S20H1L1 clone)
binding result [2]: binds
